Data reported in patent US20120283194.

How the values were obtained:
[1] = biological target: GST:Gli1 fragment, zinc finger DNA binding region (UniProt P08151)
GST:Gli1 fragment, zinc finger DNA binding region, sequence (P08151 235-387): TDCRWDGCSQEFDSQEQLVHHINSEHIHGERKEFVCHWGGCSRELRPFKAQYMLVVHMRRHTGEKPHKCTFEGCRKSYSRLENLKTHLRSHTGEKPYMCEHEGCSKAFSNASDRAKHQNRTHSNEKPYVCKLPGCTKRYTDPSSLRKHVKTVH

GST:Gli1, sequence (P08151 whole entry): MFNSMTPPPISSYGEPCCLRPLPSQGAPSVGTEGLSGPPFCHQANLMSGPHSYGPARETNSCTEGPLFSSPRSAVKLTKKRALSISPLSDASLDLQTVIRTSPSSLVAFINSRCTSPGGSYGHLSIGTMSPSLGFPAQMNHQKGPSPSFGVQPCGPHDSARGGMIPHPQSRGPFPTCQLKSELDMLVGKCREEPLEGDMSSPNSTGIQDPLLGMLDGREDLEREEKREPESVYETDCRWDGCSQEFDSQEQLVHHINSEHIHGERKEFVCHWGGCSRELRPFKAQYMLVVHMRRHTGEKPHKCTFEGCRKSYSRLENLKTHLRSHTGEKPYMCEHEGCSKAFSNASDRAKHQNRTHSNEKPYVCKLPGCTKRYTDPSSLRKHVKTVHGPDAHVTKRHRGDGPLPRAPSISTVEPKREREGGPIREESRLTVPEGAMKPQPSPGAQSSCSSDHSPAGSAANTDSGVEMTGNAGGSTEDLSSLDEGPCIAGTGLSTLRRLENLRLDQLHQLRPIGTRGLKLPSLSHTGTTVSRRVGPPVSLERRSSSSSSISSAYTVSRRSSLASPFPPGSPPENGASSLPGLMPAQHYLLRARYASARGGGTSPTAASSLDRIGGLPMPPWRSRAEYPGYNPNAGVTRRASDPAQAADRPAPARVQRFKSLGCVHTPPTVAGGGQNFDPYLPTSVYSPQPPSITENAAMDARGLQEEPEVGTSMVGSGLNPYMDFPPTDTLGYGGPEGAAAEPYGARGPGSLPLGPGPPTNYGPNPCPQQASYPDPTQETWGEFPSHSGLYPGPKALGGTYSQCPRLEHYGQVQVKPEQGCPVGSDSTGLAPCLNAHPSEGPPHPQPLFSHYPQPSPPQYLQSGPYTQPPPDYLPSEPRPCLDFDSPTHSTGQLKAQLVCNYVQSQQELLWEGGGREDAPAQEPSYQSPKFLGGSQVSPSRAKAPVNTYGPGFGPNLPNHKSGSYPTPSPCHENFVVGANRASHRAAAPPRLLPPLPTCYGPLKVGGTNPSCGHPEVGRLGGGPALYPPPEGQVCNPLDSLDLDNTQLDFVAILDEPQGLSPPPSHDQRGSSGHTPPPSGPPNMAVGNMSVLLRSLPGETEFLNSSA

B1: recombinant HIS:aPKC (enzyme, UniProt P41743 2-596, looked up, species assumed)
Protein kinase C iota type: PTQRDSSTMSHTVAGGGSGDHSHQVRVKAYYRGDIMITHFEPSISFEGLCNEVRDMCSFDNEQLFTMKWIDEEGDPCTVSSQLELEEAFRLYELNKDSELLIHVFPCVPERPGMPCPGEDKSIYRRGARRWRKLYCANGHTFQAKRFNRRAHCAICTDRIWGLGRQGYKCINCKLLVHKKCHKLVTIECGRHSLPQEPVMPMDQSSMHSDHAQTVIPYNPSSHESLDQVGEEKEAMNTRESGKASSSLGLQDFDLLRVIGRGSYAKVLLVRLKKTDRIYAMKVVKKELVNDDEDIDWVQTEKHVFEQASNHPFLVGLHSCFQTESRLFFVIEYVNGGDLMFHMQRQRKLPEEHARFYSAEISLALNYLHERGIIYRDLKLDNVLLDSEGHIKLTDYGMCKEGLRPGDTTSTFCGTPNYIAPEILRGEDYGFSVDWWALGVLMFEMMAGRSPFDIVGSSDNPDQNTEDYLFQVILEKQIRIPRSLSVKAASVLKSFLNKDPKERLGCHPQTGFADIQGHPFFRNVDWDMMEQKQVVPPFKPNISGEFGLDNFDSQFTNEPVQLTPDDDDIVRKIDQSEFEGFEYINPLLMSAEECV
modifications: His tag
in vitro kinase reaction ([g-32P]ATP, SDS-PAGE, phosphor screen) (GST:Gli1): aPKC phosphorylates Gli1 (FIG. 3i) | in vitro kinase reaction [1]: aPKC phosphorylates recombinantly expressed human Gli1 DNA-binding domain | in vitro kinase reaction ([g-32P]ATP, SDS-PAGE, phosphor screen) [1]: with the majority of the phosphorylation occurring in the zinc finger DNA binding region of Gli1
